Molecular target: gp53C, C-terminal fragment of gene product 53 (gp53) of Acinetobacter baumannii bacteriophage AP22 (Acinetobacter baumannii bacteriophage AP22)
Experiment: crystal structure

Substance: gp53C, C-terminal fragment of gene product 53 (gp53) of Acinetobacter baumannii bacteriophage AP22 (domain or fragment)
- stoichiometry N: 3

Source: paper doi:10.1101/518761
